One series addresses MDCC-E. coli SSB (G26C) (Escherichia coli, UniProt P0AGE0 SEQ:1-177, G26C). In words: 25 mM Tris pH 7.5, 200 mM NaCl, 30 C. Particulars: tags: MDCC label on Cys26; chain copies: 4 (stated, tetramer). On the procedure: (§1) In order to obtain a molecule suitable for solution measurements, a suitably large fluorescence increase on binding DNA, together with reasonably bright fluorescence quantum yield are the main criteria. Fluorescence spectra of 250 nM labeled E. coli SSB (tetramer concentration) were measured at 30° C. in 25 mM Tris.HCl pH 7.5, 200 mM NaCl, 1 mM DTT, and 5 μM bovine serum albumin.
(§2) Excitation was at the appropriate wavelength for the fluorophore and the emission intensities at the maximum were measured in the absence and presence of saturating dT₇₀. The two coumarins, IDCC and MDCC gave the largest fluorescence enhancement with G26C and this mutant protein labeled with IDCC, IDCC-E. coli SSB, was chosen for further study for two reasons. Firstly it gave consistently a larger increase than MDCC. […] In the case of MDCC, reaction of its maleimide with a protein cysteine causes the production of diastereoisomers. […] In contrast, reaction of IDCC with a thiol should produce only a single molecular species.

Series [1] has as its target Alexa Fluor 488-E. coli SSB (G26C) (Escherichia coli, UniProt P0AGE0 SEQ:1-177, G26C). In words: 25 mM Tris pH 7.5, 200 mM NaCl, 30 C. The settings on record: tags: Alexa Fluor 488 label on Cys26; chain copies: 4 (stated, tetramer). On the procedure: as §1, §2
Another series has as its target IDCC-E. coli SSB (S92C) (Escherichia coli, UniProt P0AGE0 SEQ:1-177, S92C). In words: 25 mM Tris pH 7.5, 200 mM NaCl, 30 C. The settings on record: tags: IDCC label on Cys92; chain copies: 4 (stated, tetramer). On the procedure:
as §1, §2

For the next series, the target named is MIANS-E. coli SSB (S92C) (Escherichia coli, UniProt P0AGE0 SEQ:1-177, S92C). In words: 25 mM Tris pH 7.5, 200 mM NaCl, 30 C. The settings on record: tags: MIANS label on Cys92; chain copies: 4 (stated, tetramer). On the procedure:
as §1, §2

Series [2] concerns the target Alexa Fluor 546-E. coli SSB (G26C) (Escherichia coli, UniProt P0AGE0 SEQ:1-177, G26C). In words: 25 mM Tris pH 7.5, 200 mM NaCl, 30 C. The settings on record: tags: Alexa Fluor 546 label on Cys26; chain copies: 4 (stated, tetramer). Here is the method: as §1, §2
Series [3] deals with Alexa Fluor 546-E. coli SSB (S92C) (Escherichia coli, UniProt P0AGE0 SEQ:1-177, S92C). Put plainly: 25 mM Tris pH 7.5, 200 mM NaCl, 30 C. The settings on record: tags: Alexa Fluor 546 label on Cys92; chain copies: 4 (stated, tetramer). On the procedure: as §1, §2
The target in series [4] is 6-IATR-E. coli SSB (S92C) (Escherichia coli, UniProt P0AGE0 SEQ:1-177, S92C). Put plainly: 25 mM Tris pH 7.5, 200 mM NaCl, 30 C. Particulars: tags: 6-IATR label on Cys92; chain copies: 4 (stated, tetramer). Here is the method:
as §1, §2

In series [5] the target is Alexa Fluor 488-E. coli SSB (S92C) (Escherichia coli, UniProt P0AGE0 SEQ:1-177, S92C). Put plainly: 25 mM Tris pH 7.5, 200 mM NaCl, 30 C. The settings on record: tags: Alexa Fluor 488 label on Cys92; chain copies: 4 (stated, tetramer). On the procedure:
as §1, §2

In series [6] the target is 6-IATR-E. coli SSB (G26C) (Escherichia coli, UniProt P0AGE0 SEQ:1-177, G26C). In words: 25 mM Tris pH 7.5, 200 mM NaCl, 30 C. Particulars: tags: 6-IATR label on Cys26; chain copies: 4 (stated, tetramer). Here is the method: as §1, §2
Series [7] concerns the target T1, IDCC-E. coli SSB (G26C) (Escherichia coli, UniProt P0AGE0 SEQ:1-177, G26C (mature protein numbering as printed)). In words: 25 mM Tris pH 7.5, 200 mM NaCl, 30 C. The settings on record: tags: IDCC diethylaminocoumarin label on Cys26; chain copies: 4 (stated, tetramer). On the procedure:
as §1, §2

A further series addresses MDCC-E. coli SSB (S92C) (Escherichia coli, UniProt P0AGE0 SEQ:1-177, S92C). Put plainly: 25 mM Tris pH 7.5, 200 mM NaCl, 30 C. Particulars: tags: MDCC label on Cys92; chain copies: 4 (stated, tetramer). Here is the method: as §1, §2
The target of series [8] is 6-IATR-E. coli SSB (W88C) (Escherichia coli, UniProt P0AGE0 SEQ:1-177, W88C (mature protein numbering as printed)). In words: tight binding, saturates at 1:1 dT70:tetramer; 200 mM NaCl. Particulars: tags: 6-IATR rhodamine label on Cys88; chain copies: 4 (stated, tetramer).
The target in series [9] is T1, IDCC-E. coli SSB (G26C). In words: competition; ratio Kd(IDCC-SSB)/Kd(unlabeled SSB); 200 mM NaCl, 30 C. Particulars: tags: IDCC diethylaminocoumarin label on Cys26; chain copies: 4 (stated, tetramer). On the procedure: as §1
(§3) In order to determine the effect of labeling on the affinity of E. coli SSB for ssDNA, dT₇₀ was titrated into a mixture of unlabeled E. coli SSB and IDCC-E. coli SSB (FIG. 4). It is apparent that low concentrations of DNA bind mainly to the unlabeled E. coli SSB, as there is only a small increase in fluorescence. This implies that the unlabeled protein has the higher affinity.

Series [10] deals with unlabeled E. coli SSB (S92C) (Escherichia coli, UniProt P0AGE0 SEQ:1-177, S92C (mature protein numbering as printed)). Put plainly: competition; binds dT70 28-fold more tightly than IDCC-SSB. The settings on record: chain copies: 4 (stated, tetramer). Here is the method:
as §1, §3

B1: dT70 (ssDNA)
DNA: TTTTTTTTTTTTTTTTTTTTTTTTTTTTTTTTTTTTTTTTTTTTTTTTTTTTTTTTTTTTTTTTTTTTTT
As for B1, the activity with MDCC-E. coli SSB (G26C) is 4.9 fluorescence ratio +/- dT70; in series [1], 3.3 fluorescence ratio +/- dT70; with IDCC-E. coli SSB (S92C) it was 2.8 fluorescence ratio +/- dT70; in the series with MIANS-E. coli SSB (S92C), 0.4 fluorescence ratio +/- dT70; in series [2], 2.3 fluorescence ratio +/- dT70; in [3] it was 1.5 fluorescence ratio +/- dT70. The activity in series [4] was 1.3 fluorescence ratio +/- dT70; in series [5] it was 3.1 fluorescence ratio +/- dT70; in series [6] it was 2.8 fluorescence ratio +/- dT70; with IDCC-E. coli SSB (G26C) [7], 6.1 fluorescence ratio +/- dT70; with MDCC-E. coli SSB (S92C), 2.2 fluorescence ratio +/- dT70; in series [8], ~4.5 fold fluorescence (+/- DNA). The binding signal with IDCC-E. coli SSB (G26C) [9] was 28 fold Kd vs unlabeled SSB S92C. Further, the binding result in series [10] was “binds”.

Values taken from patent publication US20110177501, “BIOSENSOR FOR DETECTION AND VISUALISATION OF SINGLE-STRANDED DNA” (MEDICAL RESEARCH COUNCIL, published 2011).
